PMC2631452, “Redox biology of Mycobacterium tuberculosis H37Rv: protein-protein interaction between GlgB and WhiB1 involves exchange of thiol-disulfide” (BMC Biochemistry, 2009)

Target: T1, purified, oxidized GlgB pre-alkylated with iodoacetamide (Mycobacterium tuberculosis H37Rv, UniProt P9WN45 1-731, free cysteines C95 and C658 alkylated with iodoacetamide; C193 and C617 in an intra-molecular disulfide bond (oxidized))
T1 construct: GlgB (Rv1326c), Mycobacterium tuberculosis; recombinant, about 85 kDa on SDS-PAGE; also called pre-alkylated oxidized GlgB; pre-alkylated GlgB
T1 sequence: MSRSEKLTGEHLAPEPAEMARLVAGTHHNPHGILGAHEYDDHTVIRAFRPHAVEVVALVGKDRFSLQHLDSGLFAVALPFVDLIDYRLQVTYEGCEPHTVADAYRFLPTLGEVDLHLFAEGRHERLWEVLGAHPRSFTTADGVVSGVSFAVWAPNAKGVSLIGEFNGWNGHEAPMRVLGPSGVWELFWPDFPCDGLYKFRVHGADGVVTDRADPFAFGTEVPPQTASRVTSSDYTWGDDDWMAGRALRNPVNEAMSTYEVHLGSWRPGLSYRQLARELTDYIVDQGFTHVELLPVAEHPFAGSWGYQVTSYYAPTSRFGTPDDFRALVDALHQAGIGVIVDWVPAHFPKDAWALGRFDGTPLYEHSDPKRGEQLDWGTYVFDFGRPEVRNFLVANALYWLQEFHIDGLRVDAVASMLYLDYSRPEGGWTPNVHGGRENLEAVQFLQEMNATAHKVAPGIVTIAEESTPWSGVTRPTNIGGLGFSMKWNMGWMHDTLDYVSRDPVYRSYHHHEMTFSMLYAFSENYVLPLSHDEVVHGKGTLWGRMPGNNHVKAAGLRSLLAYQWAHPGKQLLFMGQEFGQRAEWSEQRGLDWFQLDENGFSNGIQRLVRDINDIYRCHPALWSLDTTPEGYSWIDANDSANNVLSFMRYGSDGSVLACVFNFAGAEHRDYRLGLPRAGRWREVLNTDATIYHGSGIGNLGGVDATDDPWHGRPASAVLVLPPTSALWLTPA
Assay: […]; 50 mM Tris.HCl pH 8.0, 100 mM NaCl, 0.05% Triton X-100, 2 mM EDTA, 10 mM MgCl2, 25°C; […]
Conditions: both partners purified

B1: WhiB1C40S (natural protein)
chain: MDWRHKAVCRDEDPELFFPVGNSGPALAQIADAKLVCNRSPVTTECLSWALNTGQDSGVWGGMSEDERRALKRRNARTKARTGV
notes: also called C40S mutant of WhiB1
**Q.** Does B1 bind?
**A.** binds
